{"source": "paper PMC11096129", "key": {"RPA [1]": {"molecular_target": "T1, RPA (Homo sapiens, UniProt P27694;P15927;P35244 1-616;1-270;1-121)", "T1 sequence (P27694 whole entry, chain 1 of 3)": "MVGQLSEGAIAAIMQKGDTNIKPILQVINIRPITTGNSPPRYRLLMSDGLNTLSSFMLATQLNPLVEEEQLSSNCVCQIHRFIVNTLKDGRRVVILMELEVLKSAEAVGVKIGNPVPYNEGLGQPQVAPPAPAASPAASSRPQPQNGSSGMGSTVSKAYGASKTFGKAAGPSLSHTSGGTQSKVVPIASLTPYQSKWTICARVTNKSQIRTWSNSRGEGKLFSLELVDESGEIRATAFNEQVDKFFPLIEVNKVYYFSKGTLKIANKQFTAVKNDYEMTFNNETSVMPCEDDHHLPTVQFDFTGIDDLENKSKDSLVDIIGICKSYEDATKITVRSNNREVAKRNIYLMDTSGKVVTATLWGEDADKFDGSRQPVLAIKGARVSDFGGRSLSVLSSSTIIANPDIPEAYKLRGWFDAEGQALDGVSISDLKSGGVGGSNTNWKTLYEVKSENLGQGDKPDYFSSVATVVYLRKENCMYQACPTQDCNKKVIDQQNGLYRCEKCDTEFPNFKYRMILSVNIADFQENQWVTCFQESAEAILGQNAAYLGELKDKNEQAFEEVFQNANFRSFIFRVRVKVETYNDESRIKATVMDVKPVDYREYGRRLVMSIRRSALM", "T1 sequence (P15927 whole entry, chain 2 of 3)": "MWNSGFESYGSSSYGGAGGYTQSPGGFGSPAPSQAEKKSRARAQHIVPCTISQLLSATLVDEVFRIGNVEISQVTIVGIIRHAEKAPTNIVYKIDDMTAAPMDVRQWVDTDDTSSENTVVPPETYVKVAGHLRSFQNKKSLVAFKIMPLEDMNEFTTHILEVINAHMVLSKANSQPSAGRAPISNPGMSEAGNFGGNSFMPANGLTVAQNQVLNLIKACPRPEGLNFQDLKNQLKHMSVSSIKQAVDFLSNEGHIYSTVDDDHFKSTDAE", "T1 sequence (P35244 whole entry, chain 3 of 3)": "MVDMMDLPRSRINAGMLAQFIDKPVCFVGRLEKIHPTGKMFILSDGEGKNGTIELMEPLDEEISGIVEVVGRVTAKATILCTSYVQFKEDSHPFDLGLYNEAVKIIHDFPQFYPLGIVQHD", "experiment": "cryo-EM (3.2 Å, trimeric core); 2 mM Mg(OAc)2; FA: 25 mM HEPES pH 8.0, 0.2 M KOAc, 10% glycerol, 0.25 mM TCEP, 1 mM Mg(OAc)2, 0.01% Brij-35, 25 °C, 10 nM DNA; BLI: 25 mM HEPES pH 8.0, 200 mM KOAc, 0.01% Tween-20, 1 mM Mg(OAc)2, 0.25 mM TCEP, 25 °C", "conditions": "protein: recombinant; tags: 10xHis on RPA3; copies: 1;1;1; single strand"}, "RAD52(∆RID)": {"molecular_target": "T2, RAD52(∆RID) (Homo sapiens, UniProt P43351 1-418, del239-290)", "T2 sequence": "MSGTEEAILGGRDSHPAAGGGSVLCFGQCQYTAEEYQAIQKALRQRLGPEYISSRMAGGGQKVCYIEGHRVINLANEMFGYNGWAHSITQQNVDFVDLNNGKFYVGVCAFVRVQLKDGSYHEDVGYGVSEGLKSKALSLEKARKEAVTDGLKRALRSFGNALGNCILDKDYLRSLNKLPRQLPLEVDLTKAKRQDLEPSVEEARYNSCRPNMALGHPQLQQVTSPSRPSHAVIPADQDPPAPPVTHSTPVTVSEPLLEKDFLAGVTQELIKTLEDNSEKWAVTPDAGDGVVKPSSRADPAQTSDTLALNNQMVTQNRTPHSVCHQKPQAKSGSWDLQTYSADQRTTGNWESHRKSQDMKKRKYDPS", "experiment": "fluorescence anisotropy; 1 mM Mg(OAc)2; FA: 25 mM HEPES pH 8.0, 0.2 M KOAc, 10% glycerol, 0.25 mM TCEP, 1 mM Mg(OAc)2, 0.01% Brij-35, 25 °C, 10 nM DNA; BLI: 25 mM HEPES pH 8.0, 200 mM KOAc, 0.01% Tween-20, 1 mM Mg(OAc)2, 0.25 mM TCEP, 25 °C", "conditions": "protein: recombinant; tags: none (tags removed); label: 5' 6-FAM; single strand"}, "RPA [2]": {"molecular_target": "T1, RPA", "experiment": "fluorescence anisotropy; 1 mM Mg(OAc)2; FA: 25 mM HEPES pH 8.0, 0.2 M KOAc, 10% glycerol, 0.25 mM TCEP, 1 mM Mg(OAc)2, 0.01% Brij-35, 25 °C, 10 nM DNA; BLI: 25 mM HEPES pH 8.0, 200 mM KOAc, 0.01% Tween-20, 1 mM Mg(OAc)2, 0.25 mM TCEP, 25 °C", "conditions": "protein: recombinant; tags: 10xHis on RPA3; copies: 1;1;1; label: 5' 6-FAM; single strand"}, "RPA(∆WHD)": {"molecular_target": "RPA(∆WHD) (Homo sapiens, UniProt P27694;P15927;P35244 1-616;1-206;1-121)", "sequence (P27694 whole entry, chain 1 of 3)": "as the sequence (P27694 whole entry, chain 1 of 3) above", "sequence (P15927 1-206, chain 2 of 3)": "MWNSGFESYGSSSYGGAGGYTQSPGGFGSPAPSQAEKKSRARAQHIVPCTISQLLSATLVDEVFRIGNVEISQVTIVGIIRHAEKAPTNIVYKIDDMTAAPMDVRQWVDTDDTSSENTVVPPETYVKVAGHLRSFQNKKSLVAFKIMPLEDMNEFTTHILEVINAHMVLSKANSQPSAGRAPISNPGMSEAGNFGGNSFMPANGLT", "sequence (P35244 whole entry, chain 3 of 3)": "as the sequence (P35244 whole entry, chain 3 of 3) above", "experiment": "fluorescence anisotropy; 1 mM Mg(OAc)2; FA: 25 mM HEPES pH 8.0, 0.2 M KOAc, 10% glycerol, 0.25 mM TCEP, 1 mM Mg(OAc)2, 0.01% Brij-35, 25 °C, 10 nM DNA; BLI: 25 mM HEPES pH 8.0, 200 mM KOAc, 0.01% Tween-20, 1 mM Mg(OAc)2, 0.25 mM TCEP, 25 °C", "conditions": "protein: recombinant; tags: 10xHis on RPA3; copies: 1;1;1; label: 5' 6-FAM; single strand"}, "RAD52(∆C)": {"molecular_target": "T3, RAD52(∆C) (Homo sapiens, UniProt P43351 1-400, del401-418)", "T3 sequence": "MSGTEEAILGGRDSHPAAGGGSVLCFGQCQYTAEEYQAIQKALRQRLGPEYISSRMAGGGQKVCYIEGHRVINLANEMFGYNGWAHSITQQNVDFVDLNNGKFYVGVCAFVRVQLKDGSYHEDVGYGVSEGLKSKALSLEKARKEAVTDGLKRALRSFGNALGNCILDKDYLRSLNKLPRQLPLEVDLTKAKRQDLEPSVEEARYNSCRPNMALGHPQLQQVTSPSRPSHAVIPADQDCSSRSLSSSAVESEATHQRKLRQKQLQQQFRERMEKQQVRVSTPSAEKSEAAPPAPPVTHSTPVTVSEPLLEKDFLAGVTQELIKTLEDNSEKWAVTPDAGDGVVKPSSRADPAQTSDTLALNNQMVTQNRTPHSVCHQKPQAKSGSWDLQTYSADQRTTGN", "experiment": "fluorescence anisotropy; 1 mM Mg(OAc)2; FA: 25 mM HEPES pH 8.0, 0.2 M KOAc, 10% glycerol, 0.25 mM TCEP, 1 mM Mg(OAc)2, 0.01% Brij-35, 25 °C, 10 nM DNA; BLI: 25 mM HEPES pH 8.0, 200 mM KOAc, 0.01% Tween-20, 1 mM Mg(OAc)2, 0.25 mM TCEP, 25 °C", "conditions": "protein: recombinant; tags: none (tags removed); chain copies: 11; label: 5' 6-FAM; single strand"}, "RAD52 NTD": {"molecular_target": "T4, RAD52 NTD (Homo sapiens, UniProt P43351 1-209, del210-418)", "T4 sequence": "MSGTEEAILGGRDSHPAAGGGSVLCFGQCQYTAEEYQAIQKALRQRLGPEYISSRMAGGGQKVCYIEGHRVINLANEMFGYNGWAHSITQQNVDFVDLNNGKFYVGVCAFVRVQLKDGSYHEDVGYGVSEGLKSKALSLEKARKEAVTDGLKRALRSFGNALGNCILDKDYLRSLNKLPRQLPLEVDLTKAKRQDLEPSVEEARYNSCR", "experiment": "fluorescence anisotropy; 1 mM Mg(OAc)2; ring concentration (11-mer); FA: 25 mM HEPES pH 8.0, 0.2 M KOAc, 10% glycerol, 0.25 mM TCEP, 1 mM Mg(OAc)2, 0.01% Brij-35, 25 °C, 10 nM DNA; BLI: 25 mM HEPES pH 8.0, 200 mM KOAc, 0.01% Tween-20, 1 mM Mg(OAc)2, 0.25 mM TCEP, 25 °C", "conditions": "protein: recombinant; tags: none (tags removed); chain copies: 11; label: 5' 6-FAM; single strand"}, "RAD52-OR (open ring)": {"molecular_target": "T5, RAD52-OR (open ring) (Homo sapiens, UniProt P43351 1-418)", "T5 sequence": "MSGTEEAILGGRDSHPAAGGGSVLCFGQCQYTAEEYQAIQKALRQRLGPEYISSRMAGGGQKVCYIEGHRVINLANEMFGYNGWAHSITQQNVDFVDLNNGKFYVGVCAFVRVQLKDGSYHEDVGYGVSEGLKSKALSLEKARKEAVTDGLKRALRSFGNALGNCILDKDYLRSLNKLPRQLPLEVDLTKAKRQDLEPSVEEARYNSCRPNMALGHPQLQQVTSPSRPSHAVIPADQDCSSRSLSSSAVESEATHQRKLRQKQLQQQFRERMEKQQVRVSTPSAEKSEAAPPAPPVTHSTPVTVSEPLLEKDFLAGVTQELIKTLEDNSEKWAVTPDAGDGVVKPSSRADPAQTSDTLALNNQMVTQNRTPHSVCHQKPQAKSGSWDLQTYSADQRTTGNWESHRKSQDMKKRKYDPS", "experiment": "fluorescence anisotropy; 1 mM Mg(OAc)2; ring concentration (10-mer); FA: 25 mM HEPES pH 8.0, 0.2 M KOAc, 10% glycerol, 0.25 mM TCEP, 1 mM Mg(OAc)2, 0.01% Brij-35, 25 °C, 10 nM DNA; BLI: 25 mM HEPES pH 8.0, 200 mM KOAc, 0.01% Tween-20, 1 mM Mg(OAc)2, 0.25 mM TCEP, 25 °C", "conditions": "protein: recombinant; tags: none (tags removed); chain copies: 10; label: 5' 6-FAM; single strand"}}, "data": [{"binder": "CGGCAGCGTTGACTAGACGGATTCGATA (ssDNA)", "note": "[SSA7 (28 nt)]", "values": [{"measurement": "binding result", "setting": "RPA [1]", "value": "binds"}]}, {"binder": "TATCGAATCCGTCTAGTCAACGCTGCCGAATTCTACCAGT (ssDNA)", "note": "[FAM-SSA4 (40 nt)]", "values": [{"measurement": "Kd", "setting": "RAD52(∆RID)", "value": "0.7 ± 0.2", "unit": "nM"}, {"measurement": "Kd", "setting": "RPA [2]", "value": "3.6 ± 0.5", "unit": "nM"}, {"measurement": "Kd", "setting": "RPA(∆WHD)", "value": "3.4 ± 0.9", "unit": "nM"}, {"measurement": "Kd", "setting": "RAD52(∆C)", "value": "0.2 ± 0.2", "unit": "nM"}, {"measurement": "Kd", "setting": "RAD52 NTD", "value": "3.2 ± 0.6", "unit": "nM"}, {"measurement": "Kd", "setting": "RAD52-OR (open ring)", "value": "0.3 ± 0.1", "unit": "nM"}]}]}
